Reference: patent publication US20200255508A1 (AbbVie / Abbott, published 2020)
Changes are numbered by the printed parent chain. Where two headings read alike, the source gives them in different places. One block for each binder: values may come before it.

Assays:
[1] = biological target: T1, mouse DLL4 on the cell surface (mouse, UniProt Q9JI71 27-686); assay: FACS on DLL4 cells
T1 construct: whole, on cells; also called HEK293-mDLL4; mDLL4-293G
Description: (§1) Stable cell lines overexpressing cell-surface DLL4 were harvested from tissue culture flasks, washed four times and resuspended in phosphate buffered saline (PBS) containing 1% bovine serum albumin and 1 mM CaCl₂ (FACS buffer), 1.5×10³ cells were incubated with antibodies at various concentrations in FACS buffer for 60 minutes on ice. Cells were washed twice and 50 μL of R-phycoerythrin-conjugated anti-rat IgG. […] Following an incubation on ice (4° C., 60 minutes), cells were washed three times and resuspended in FACS buffer. Fluorescence was measured using a Becton Dickinson FACSCalibur-HTS (Becton Dickinson, San Jose. Calif., US). Data were analyzed using Graphpad Prism software and EC₅₀ values were reported as the concentration of antibody to achieve 50% of maximal DLL4 antibodies binding to DLL4 expressing cells.

[2] = biological target: T2, human DLL4 on the cell surface (human, UniProt Q9NR61 27-685); assay: FACS on DLL4 cells
T2 construct: whole, on cells; also called HEK293-hDLL4; hDLL4-293G
Description: as §1

mouse DLL4-his [3] = biological target: T3, mouse DLL4-his (mouse, UniProt Q9JI71 27-532); assay: ELISA on DLL4-his
T3 construct: extracellular domain; not shown: his tag

human DLL4-his [4] = biological target: T4, human DLL4-his (human, UniProt Q9NR61 27-529); assay: ELISA on DLL4-his
T4 construct: extracellular domain
Description: (§2) After the final wash, plates were incubated with 100 μl/well ELISA substrate (Sigma # T8665). The reaction was stopped after 8 minutes at 25° C. with 100 μl/well 1N HCl and the absorbance was read at 450 nm. Data were analyzed using Graphpad Prism software and EC50 values were reported.

[5] = biological target: T1, mouse DLL4 on the cell surface; assay: competition FACS, competitor huNotch-1
Description: (§3) Notch blocking assay: Briefly, stable cell lines overexpressing cell-surface DLL4 were harvested from tissue culture flasks and re-suspended in phosphate buffered saline (PBS) containing 1% bovine serum albumin and 1 mM CaCl₂ (FACS buffer). HEK293-hDLL4 or HEK293-mDLL4 cells were dispensed into 96-well plate (v-bottom) at 1.5×10⁵ cells/well in FACS buffer. […] After washing the cells two times with FACS buffer, 50 μL of R-phycoerythrin-conjugated streptavidin (1:150 dilution in FACS buffer) (Jackson ImmunoResearch, West Grove, Pa., US, catalog no. 016-110-084) were added. Following an incubation on ice (4° C., 60 minutes), cells were washed three times and resuspended in FACS buffer. Fluorescence was measured using a Becton Dickinson FACSCalibur-HTS (Becton Dickinson, San Jose. Calif.).

[6] = biological target: T2, human DLL4 on the cell surface; assay: competition FACS, competitor huNotch-1
Description: as §3

[7] = biological target: T5, human DLL4 extracellular domain (human, UniProt Q9NR61 27-529); assay: competition ELISA, competitor huNotch-1
T5 construct: extracellular domain; coated on plates in the sVEGFR1 assay; also called huDLL4 ECD; Human DLL4 ECD
Description: (§4) Plates were then washed 3 times with wash buffer (PBS, 0.05% Tween-20) and blocked with 200 μl/well blocking buffer (D-PBS, 1% BSA, 1 mM CaCl₂, 0.05% Tween-20) for 1 hour at 25° C. […] Assay plates were washed after blocking, and incubated with DLL4/antibody mixtures (100 μl/well, 1 hour at 25° C. with shaking). […] After a final wash, plates were developed using 100 μl/well substrate (TMB Sigma # T8665), and the reaction was stopped after an 8-minute incubation at 25° C. (for muDLL4 ELISA) and after 20 minute incubation at 25° C. (for huDLL4 ELISA) using 100 μl/well 1N HCl, and the absorbance was read at 450 nm.

[8] = biological target: T6, mouse DLL4 extracellular domain (mouse, UniProt Q9JI71 27-532); assay: competition ELISA, competitor huNotch-1
T6 construct: extracellular domain; also called muDLL4 ECD; Mouse DLL4 ECD
Description: as §4

[9] = biological target: T5, human DLL4 extracellular domain; assay: Biacore SPR;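 on koff: surface plasmon resonance on a Biacore instrument, antibodies captured on immobilized anti-human Fc, purified recombinant DLL4 extracellular domain injected as analyte, binding followed over time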
Description: (§5) The BIACORE® surface plasmon resonance assay (Biacore, Inc., Piscataway, N.J., US) determines the affinity of antibodies with kinetic measurements of on-rate and off-rate constants. Binding of DLL4 antibodies to a purified recombinant DLL4 extracellular domain is determined by surface plasmon resonance-based measurements with a Biacore® instrument (either a Biacore 2000, Biacore 3000, or Biacore T100, GE Healthcare, Piscataway, N.J. US) using running buffer HBS-EPB (10 mM HEPES [pH 7.4], 150 mM NaCl, 3 mM EDTA, 0.1 mg/ml BSA and 0.005% surfactant P20) at 25° C. For example, approximately 9000 RU of goat anti-human Fc specific polyclonal antibody (Thermo Fisher Scientific Inc., Rockford, Ill., US) diluted in 10 mM sodium acetate (pH 4.5) is directly immobilized across a CM5 research grade biosensor chip using a standard amine coupling kit according to manufacturer's instructions and procedures at 25 μg/ml. Unreacted moieties on the biosensor surface are blocked with ethanolamine. For kinetic analysis, rate equations derived from the 1:1 Langmuir binding model are fitted simultaneously to multiple antigen injections (using global fit analysis) with the use of Scrubber 2 (BioLogic Software). […] The equilibrium dissociation constant KD (M) of the reaction between antibodies and the target antigen is then calculated from the kinetic rate constants by the following formula: KD=Koff/Kₒₙ. Binding is recorded as a function of time and kinetic rate constants are calculated. In this assay, on-rates as fast as 10⁶ M⁻¹s⁻¹ and off-rates as slow as 10⁻⁶ s⁻¹ can be measured.

[10] = biological target: T6, mouse DLL4 extracellular domain; assay: Biacore SPR;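 on koff: surface plasmon resonance on a Biacore instrument, antibodies captured on immobilized anti-human Fc, purified recombinant DLL4 extracellular domain injected as analyte, binding followed over time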
Description: as §5

[11] = biological target: T1, mouse DLL4 on the cell surface; assay: FACS on DLL4 cells; remark: listed apart in the source
[12] = biological target: T2, human DLL4 on the cell surface; assay: FACS on DLL4 cells; remark: listed apart in the source
[13] = biological target: T5, human DLL4 extracellular domain; assay: Biacore SPR; remark: listed apart in the source;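 on koff: surface plasmon resonance on a Biacore instrument, antibodies captured on immobilized anti-human Fc, purified recombinant DLL4 extracellular domain injected as analyte, binding followed over time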
Description: (§6) Binding of DLL4 antibodies to a purified recombinant DLL4 extracellular domain is determined by surface plasmon resonance-based measurements with a Biacore® instrument (either a Biacore 2000, Biacore 3000, or Biacore T100, GE Healthcare, Piscataway, N.J. US) using running buffer HBS-EPB (10 mM HEPES [pH 7.4], 150 mM NaCl, 3 mM EDTA, 0.1 mg/ml BSA and 0.005% surfactant P20) at 25° C. For example, approximately 9000 RU of goat anti-human Fc specific polyclonal antibody (Thermo Fisher Scientific Inc., Rockford, Ill., US) diluted in 10 mM sodium acetate (pH 4.5) is directly immobilized across a CM5 research grade biosensor chip using a standard amine coupling kit according to manufacturer's instructions and procedures at 25 μg/ml. Unreacted moieties on the biosensor surface are blocked with ethanolamine. For kinetic analysis, rate equations derived from the 1:1 Langmuir binding model are fitted simultaneously to multiple antigen injections (using global fit analysis) with the use of Scrubber 2 (BioLogic Software). […] The equilibrium dissociation constant KD (M) of the reaction between antibodies and the target antigen is then calculated from the kinetic rate constants by the following formula: KD=Koff/Kₒₙ. Binding is recorded as a function of time and kinetic rate constants are calculated. In this assay, on-rates as fast as 10⁶ M⁻¹s⁻¹ and off-rates as slow as 10⁻⁶ s⁻¹ can be measured.

[14] = biological target: T6, mouse DLL4 extracellular domain; assay: Biacore SPR; remark: listed apart in the source;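 on koff: surface plasmon resonance on a Biacore instrument, antibodies captured on immobilized anti-human Fc, purified recombinant DLL4 extracellular domain injected as analyte, binding followed over time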
Description: as §6

[15] = biological target: T2, human DLL4 on the cell surface; assay: cell-based or functional assay
[16] = biological target: T1, mouse DLL4 on the cell surface; assay: competition FACS, competitor huNotch-1; remark: listed apart in the source
Description: as §3

[17] = biological target: T2, human DLL4 on the cell surface; assay: competition FACS, competitor huNotch-1; remark: listed apart in the source
Description: as §3

[18] = biological target: T1, mouse DLL4 on the cell surface; assay: competition FACS, competitor huNotch-1; remark: listed apart in the source
Description: as §3

[19] = biological target: T2, human DLL4 on the cell surface; assay: competition FACS, competitor huNotch-1; remark: listed apart in the source
Description: as §3

[20] = biological target: T5, human DLL4 extracellular domain; assay: Biacore SPR; remark: listed apart in the source
Description: as §5

[21] = biological target: T6, mouse DLL4 extracellular domain; assay: Biacore SPR; remark: listed apart in the source
Description: as §5

[22] = biological target: T1, mouse DLL4 on the cell surface; assay: FACS on DLL4 cells; remark: listed apart in the source
Description: as §1

[23] = biological target: T2, human DLL4 on the cell surface; assay: FACS on DLL4 cells; remark: listed apart in the source
Description: as §1

[24] = biological target: T5, human DLL4 extracellular domain; assay: competition ELISA, competitor huNotch-1; remark: listed apart in the source
Description: as §4

[25] = biological target: T6, mouse DLL4 extracellular domain; assay: competition ELISA, competitor huNotch-1; remark: listed apart in the source
Description: as §4

mouse DLL4-his [26] = biological target: T3, mouse DLL4-his; assay: ELISA on DLL4-his; remark: listed apart in the source
Description: as §2

human DLL4-his [27] = biological target: T4, human DLL4-his; assay: ELISA on DLL4-his; remark: listed apart in the source
Description: as §2

T1 sequence (Q9JI71 27-686): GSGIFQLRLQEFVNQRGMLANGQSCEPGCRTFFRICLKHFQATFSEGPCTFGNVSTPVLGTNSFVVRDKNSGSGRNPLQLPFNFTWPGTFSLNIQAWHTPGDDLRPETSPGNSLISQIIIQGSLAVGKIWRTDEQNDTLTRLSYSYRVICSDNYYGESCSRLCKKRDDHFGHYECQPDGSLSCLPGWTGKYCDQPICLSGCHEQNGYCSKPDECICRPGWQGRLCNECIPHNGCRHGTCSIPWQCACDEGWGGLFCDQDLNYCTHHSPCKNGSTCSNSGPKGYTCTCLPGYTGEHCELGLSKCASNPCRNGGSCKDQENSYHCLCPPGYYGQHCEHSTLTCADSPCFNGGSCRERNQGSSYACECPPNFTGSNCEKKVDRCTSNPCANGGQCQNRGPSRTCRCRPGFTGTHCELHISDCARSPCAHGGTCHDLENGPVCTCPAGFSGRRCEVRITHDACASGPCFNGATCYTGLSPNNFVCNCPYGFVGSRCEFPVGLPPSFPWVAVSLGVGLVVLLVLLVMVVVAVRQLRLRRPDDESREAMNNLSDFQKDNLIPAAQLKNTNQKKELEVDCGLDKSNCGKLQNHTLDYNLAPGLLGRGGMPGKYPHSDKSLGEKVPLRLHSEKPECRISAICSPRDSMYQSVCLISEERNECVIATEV
T3 sequence (Q9JI71 27-532): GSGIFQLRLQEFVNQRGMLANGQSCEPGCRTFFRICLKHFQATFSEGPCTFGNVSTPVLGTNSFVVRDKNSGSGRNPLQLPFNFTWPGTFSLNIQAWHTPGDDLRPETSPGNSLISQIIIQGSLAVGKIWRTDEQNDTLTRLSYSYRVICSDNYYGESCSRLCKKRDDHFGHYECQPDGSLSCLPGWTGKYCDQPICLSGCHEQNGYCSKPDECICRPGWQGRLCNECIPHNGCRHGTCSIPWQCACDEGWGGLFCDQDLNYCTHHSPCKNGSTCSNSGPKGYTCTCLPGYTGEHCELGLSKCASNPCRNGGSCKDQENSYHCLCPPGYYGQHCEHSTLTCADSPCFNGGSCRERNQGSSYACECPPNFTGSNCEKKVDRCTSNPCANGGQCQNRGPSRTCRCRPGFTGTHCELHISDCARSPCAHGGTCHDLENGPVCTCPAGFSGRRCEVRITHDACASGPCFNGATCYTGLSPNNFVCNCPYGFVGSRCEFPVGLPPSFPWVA
T6 sequence (Q9JI71 27-532): as above

Kd [1]: 3.57 nM
Kd [2]: 6.2 nM
EC50 (mouse DLL4-his [3]): 0.125 nM
EC50 (human DLL4-his [4]): 0.105 nM
IC50 [5]: 1.07 nM
IC50 [6]: 3.03 nM
IC50 [7]: 1.52 nM
IC50 [8]: 4.35 nM
Kd [9]: 0.31 nM
Kd [10]: 0.69 nM
B1: E9-FR2 (antibody, V domains shown)
VH: EVTLRESGPALVKPTQTLTLTCTVSGGSISSSSYYWGWIRQPPGKGLEWIGDIYYTGSTYYNPSLKSRVTISVDTSKNQFVLTMTNMDPVDTATYYCAREDVILRGGSDYWGQGTTVTVSS
VL: DYVLTQSPDSLAVSLGERATINCSGQRLGDKYASWYQQKPGQSPKLVIYEDSKRPSGIPDRFSGSNSGDDATLTISSLQAEDVAVYYCQAWDRDTGVFGGGTKVEIKR
notes: full-length human IgG1

Kd [1]: 2.51 nM
Kd [2]: 4 nM
EC50 (mouse DLL4-his [3]): 0.13 nM
EC50 (human DLL4-his [4]): 0.11 nM
IC50 [5]: 0.98 nM
IC50 [6]: 1.57 nM
IC50 [7]: 1.54 nM
IC50 [8]: 3.35 nM
Kd [9]: 0.72 nM
Kd [10]: 1.6 nM
B2: E9-FR1 (antibody, V domains shown)
VH: EVQLVQSGTEVKKPGESLKISCKVSGGSISSSSYYWGWIRQMPGKGLEWIGDIYYTGSTYYNPSLKSQVTISVDTSFNTFFLQWSSLKASDTAMYYCAREDVILRGGSDYWGQGTMVTVSS
VL: EYVLTQSPATLSVSPGERATLSCSGQRLGDKYASWYQQKPGQSPRLVIYEDSKRPSDIPARFSGSNSGDEATLTISSLQSEDFAVYYCQAWDRDTGVFGQGTRLEIKR
notes: full-length human IgG1

EC50 [11]: 1.94 nM
EC50 [12]: 4.46 nM
Kd [13]: 0.27 nM
koff [13]: 4.12e-05 s⁻¹
kon [13]: 152000 M⁻¹ s⁻¹
Kd [14]: 2.3 nM
koff [14]: 0.000221 s⁻¹
kon [14]: 95300 M⁻¹ s⁻¹
Inhibition of Notch activation via huDLL4 cells, coculture (IC50, nM) [15]: 0.41 nM
IC50 [16]: 0.33 nM
IC50 [17]: 4 nM
B3: E9.7E (antibody, V domains shown)
VH: EVQLQESGPGLVKPSETLSLTCTVSGGSISSSSYYWGWIRQPPGKGLEWIGDIYYAGSTYYNPSLKDRVTISVDTSKNQFSLKLSSVTAADTAVYYCAREDMILGGGADNWGQGTLVTVSS
VL: SYELTQPPSVSVSPGQTASITCSGDRLGDKYVSWYQQKPGQSPVLVIYEDSERPSGIPERFSGSNSGDTATLTISGTQAMDEADYYCQAWDSEAGVFGSGTKVT

IC50 [18]: 1.76 nM
IC50 [19]: 6.38 nM
Kd [20]: 1.57 nM
Kd [21]: 12.8 nM
Kd [22]: 2.9 nM
Kd [23]: 7.81 nM
IC50 [24]: 2.6 nM
IC50 [25]: 2.4 nM
EC50 (mouse DLL4-his [26]): 0.19 nM
EC50 (human DLL4-his [27]): 0.16 nM
B4: E9-SE5 (antibody, V domains shown)
VH: B3 VH with A56T, D67S, M102V, G105R, A108S, N110Y
VL: EYVLTQSPDFQSVTPKEKVTITCSGQRLGDKYASWYQQKPDQSPKLVIYEDSKRPSGVPSRFSGSNSGDDATLTINSLEAEDAATYYCQAWDRDTGVFGQGTKVEIKR
notes: full-length human IgG1

EC50 [11]: 0.88 nM
EC50 [12]: 3.15 nM
Kd [13]: 0.38 nM
koff [13]: 4.59e-05 s⁻¹
kon [13]: 120000 M⁻¹ s⁻¹
Kd [14]: 1.6 nM
koff [14]: 0.000121 s⁻¹
kon [14]: 73700 M⁻¹ s⁻¹
Inhibition of Notch activation via huDLL4 cells, coculture (IC50, nM) [15]: 0.85 nM
IC50 [16]: 0.26 nM
IC50 [17]: 3.03 nM
B5: E9.10C (antibody, V domains shown)
VH: B3 VH with S32G, A56T, D67S, E100Q, D101A, M102V, I103M, L104Y, A108S
VL: B3 VL with R26S, A94T

IC50 [18]: 2.3 nM
IC50 [19]: 9.25 nM
Kd [20]: 2 nM
Kd [21]: 13 nM
Kd [22]: 2.32 nM
Kd [23]: 2.67 nM
IC50 [24]: 2.5 nM
IC50 [25]: 2.6 nM
EC50 (mouse DLL4-his [26]): 0.19 nM
EC50 (human DLL4-his [27]): 0.18 nM
B6: E9-SE8 (antibody, V domains shown)
VH: EVQLQESGPGLVKPGETLSLTCTVSGGSISSSSYYWGWIRQAPGKGLEWIGDIYYTGSTYYNPSLKSRVTISVDTSKNQFYLKLSSVRAEDTAVYYCAREDVILRGGSDYWGQGTLVTVSS
VL: B4 VL
notes: full-length human IgG1

EC50 [11]: 0.47 nM
EC50 [12]: 0.22 nM
Inhibition of Notch activation via huDLL4 cells, coculture (IC50, nM) [15]: 2.4 nM
IC50 [16]: 0.21 nM
IC50 [17]: 1.82 nM
B7: E9.71(L) (antibody, human IgG1, V domains shown)
VH: B3 VH with A56T, D67S, E100Q, D101A, M102L, I103A, A108S, N110K
VL: SYELTQPPSVSVSPGQTASITCSGQRLGDKYASWYQQKPGQSPVLVIYEDSKRPSGIPERFSGSNSGDTATLTISGTQPMDEADYYCQAWDRDTGVFGGGTKLTVLG
notes: Methionine in CDR-H3 of E9-71 changed to leucine

IC50 [18]: 1.23 nM
IC50 [19]: 5.61 nM
Kd [20]: 2.43 nM
Kd [21]: 15.1 nM
Kd [22]: 0.87 nM
Kd [23]: 5.2 nM
IC50 [24]: 2.6 nM
IC50 [25]: 2.2 nM
EC50 (mouse DLL4-his [26]): 0.2 nM
EC50 (human DLL4-his [27]): 0.18 nM
B8: E9-SE2 (antibody, V domains shown)
VH: EVQLVESGGGLVQPGGSLRLSCAVSGGSISSSSYYWGWIRQAPGKGLEWIGDIYYTGSTYYNPSLKSRVTISVDTSKNSFYLQMNSLRAEDTAVYYCAREDVILRGGSDYWGQGTLVTVSS
VL: B7 VL with G99Y, K102R, L103V
notes: full-length human IgG1

IC50 [18]: 1.94 nM
IC50 [19]: 7.81 nM
Kd [20]: 1.69 nM
Kd [21]: 16.2 nM
Kd [22]: 2.24 nM
Kd [23]: 2.28 nM
IC50 [24]: 2.4 nM
IC50 [25]: 2.4 nM
EC50 (mouse DLL4-his [26]): 0.17 nM
EC50 (human DLL4-his [27]): 0.17 nM
B9: E9-SE7 (antibody, V domains shown)
VH: B8 VH
VL: B4 VL
notes: full-length human IgG1

IC50 [18]: 1.25 nM
IC50 [19]: 6.75 nM
Kd [20]: 2.26 nM
Kd [21]: 12.1 nM
Kd [22]: 0.74 nM
Kd [23]: 2.29 nM
IC50 [24]: 2.5 nM
IC50 [25]: 2.1 nM
EC50 (mouse DLL4-his [26]): 0.2 nM
EC50 (human DLL4-his [27]): 0.18 nM
B10: E9-SE3 (antibody, V domains shown)
VH: B6 VH
VL: B7 VL with G99Y, K102R, L103V
notes: full-length human IgG1

IC50 [18]: 1.53 nM
IC50 [19]: 8.16 nM
Kd [20]: 0.64 nM
Kd [21]: 10 nM
Kd [22]: 1.18 nM
Kd [23]: 4.25 nM
IC50 [24]: 2.5 nM
IC50 [25]: 2.9 nM
EC50 (mouse DLL4-his [26]): 0.19 nM
EC50 (human DLL4-his [27]): 0.17 nM
B11: E9-SE6 (antibody, V domains shown)
VH: B6 VH
VL: B7 VL with S1L, E3V, P79T, Y86L, L103V
notes: full-length human IgG1

IC50 [18]: 1.71 nM
IC50 [19]: 5.82 nM
Kd [20]: 2.38 nM
Kd [21]: 10.5 nM
Kd [22]: 1.15 nM
IC50 [24]: 2.7 nM
IC50 [25]: 2.9 nM
EC50 (mouse DLL4-his [26]): 0.2 nM
EC50 (human DLL4-his [27]): 0.17 nM
B12: E9-SE4 (antibody, V domains shown)
VH: B6 VH with G15S, A42P, Y81S, R88T, E90A
VL: B7 VL with S1L, E3V, P79T, Y86L, L103V
notes: full-length human IgG1
